# Test system: Escherichia coli TOP10
# Assay: shrunken log2 fold change of peptide-encoding DNA abundance (4.5 h post-induction vs induction); higher = less antimicrobial activity (less host growth inhibition)
# Conditions: time post-induction: 4.5 h; library: site-saturation at positions 5, 18, 19, 20
# 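Note: peptides expressed intracellularly from a pBAD plasmid library in pooled LB shake-flask culture, induced with 0.3% L-arabinose, DNA abundance read by NGS, three biological replicates, DESeq2 with apeglm shrinkage.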
row,Sequence,shrunken log2 fold change
1,RRIRWRPPRLPRPRPRPTFVPRP,-0.183
2,RRIRSRPPRLPRPRPRPCMEPRP,-0.292
3,RRIRARPPRLPRPRPRPKELPRP,0.404
4,RRIRGRPPRLPRPRPRPVAVPRP,0.912
5,RRIRRRPPRLPRPRPRPITNPRP,-0.19
6,RRIRQRPPRLPRPRPRPDFTPRP,-0.134
7,RRIRQRPPRLPRPRPRPHIDPRP,-0.224
8,RRIRARPPRLPRPRPRPYSDPRP,-0.262
9,RRIRERPPRLPRPRPRPLMSPRP,-0.406
10,RRIRGRPPRLPRPRPRPLWFPRP,0.183
11,RRIRTRPPRLPRPRPRPHLVPRP,0.0214
12,RRIRERPPRLPRPRPRPRCLPRP,0.0247
13,RRIRVRPPRLPRPRPRPIENPRP,-0.229
14,RRIRVRPPRLPRPRPRPPWPPRP,0.464
15,RRIRFRPPRLPRPRPRPPKNPRP,0.541
16,RRIRRRPPRLPRPRPRPDCNPRP,0.311
17,RRIRIRPPRLPRPRPRPTHLPRP,-0.0268
18,RRIRWRPPRLPRPRPRPFTRPRP,-0.00433
19,RRIRKRPPRLPRPRPRPETPPRP,1.89
20,RRIRPRPPRLPRPRPRPMAFPRP,0.0207
21,RRIRTRPPRLPRPRPRPCDNPRP,-0.267
22,RRIRTRPPRLPRPRPRPAYAPRP,0.0376
23,RRIRTRPPRLPRPRPRPYYWPRP,-0.0825
24,RRIRTRPPRLPRPRPRPTMQPRP,0.0459
25,RRIRNRPPRLPRPRPRPYNTPRP,-1.49

row,Sequence,shrunken log2 fold change
1,RRIRVRPPRLPRPRPRPGDIPRP,-0.264
2,RRIRARPPRLPRPRPRPCTRPRP,-0.00176
3,RRIRCRPPRLPRPRPRPYYDPRP,-0.361
4,RRIRQRPPRLPRPRPRPLNYPRP,-0.548
5,RRIRERPPRLPRPRPRPVIGPRP,-0.108
6,RRIRGRPPRLPRPRPRPTTFPRP,0.608
7,RRIRHRPPRLPRPRPRPGPLPRP,0.0825
8,RRIRFRPPRLPRPRPRPWKQPRP,-0.469
9,RRIRMRPPRLPRPRPRPRCGPRP,0.733
10,RRIRQRPPRLPRPRPRPAYMPRP,-0.263
11,RRIRGRPPRLPRPRPRPDPKPRP,0.649
12,RRIRHRPPRLPRPRPRPYGPPRP,-0.311
13,RRIRLRPPRLPRPRPRPMGQPRP,0.0212
14,RRIRIRPPRLPRPRPRPLWNPRP,-0.598
15,RRIRDRPPRLPRPRPRPPCEPRP,0.121
16,RRIRNRPPRLPRPRPRPFRHPRP,-0.727
17,RRIRHRPPRLPRPRPRPEDAPRP,-0.0619
18,RRIRLRPPRLPRPRPRPEGCPRP,0.191
19,RRIRERPPRLPRPRPRPANHPRP,-0.00846
20,RRIRLRPPRLPRPRPRPKFPPRP,-0.26
21,RRIRPRPPRLPRPRPRPCWHPRP,-0.261
22,RRIRGRPPRLPRPRPRPVRIPRP,0.536
23,RRIRLRPPRLPRPRPRPWGGPRP,1.94
24,RRIRQRPPRLPRPRPRPEVCPRP,0.134
25,RRIRGRPPRLPRPRPRPNFKPRP,0.142

row,Sequence,shrunken log2 fold change
1,RRIRDRPPRLPRPRPRPIEHPRP,-0.172
2,RRIRKRPPRLPRPRPRPVYFPRP,-0.181
3,RRIRLRPPRLPRPRPRPMQHPRP,0.256
4,RRIRRRPPRLPRPRPRPLKMPRP,0.156
5,RRIRKRPPRLPRPRPRPWLIPRP,0.109
6,RRIRTRPPRLPRPRPRPCTEPRP,-0.237
7,RRIRDRPPRLPRPRPRPTLSPRP,0.262
8,RRIRTRPPRLPRPRPRPECEPRP,0.154
9,RRIRYRPPRLPRPRPRPMGRPRP,-0.117
10,RRIRHRPPRLPRPRPRPFDGPRP,-0.258
11,RRIRRRPPRLPRPRPRPCWIPRP,0.063
12,RRIRRRPPRLPRPRPRPWDIPRP,0.0194
13,RRIRRRPPRLPRPRPRPFTKPRP,-0.221
14,RRIRQRPPRLPRPRPRPHAEPRP,-0.0176
15,RRIRGRPPRLPRPRPRPQQHPRP,0.232
16,RRIRSRPPRLPRPRPRPFDGPRP,0.0042
17,RRIRCRPPRLPRPRPRPEPIPRP,-0.0787
18,RRIRIRPPRLPRPRPRPRLFPRP,0.0705
19,RRIRCRPPRLPRPRPRPMCIPRP,-0.146
20,RRIRVRPPRLPRPRPRPDEGPRP,0.0672
21,RRIRWRPPRLPRPRPRPDIAPRP,0.0944
22,RRIRKRPPRLPRPRPRPVVGPRP,0.686
23,RRIRIRPPRLPRPRPRPAGQPRP,0.0455
24,RRIRYRPPRLPRPRPRPGHEPRP,-0.18
25,RRIRHRPPRLPRPRPRPWIVPRP,-0.404

row,Sequence,shrunken log2 fold change
1,RRIRKRPPRLPRPRPRPYSIPRP,-0.182
2,RRIRERPPRLPRPRPRPDRTPRP,-0.0361
3,RRIRGRPPRLPRPRPRPPATPRP,1.79
4,RRIRCRPPRLPRPRPRPEMMPRP,0.0935
5,RRIRCRPPRLPRPRPRPPNRPRP,0.444
6,RRIRGRPPRLPRPRPRPRICPRP,0.335
7,RRIRLRPPRLPRPRPRPPIEPRP,-0.424
8,RRIRPRPPRLPRPRPRPQPTPRP,-0.0242
9,RRIRRRPPRLPRPRPRPNSTPRP,-0.0128
10,RRIRQRPPRLPRPRPRPGTMPRP,0.00897
11,RRIRFRPPRLPRPRPRPHQPPRP,0.575
12,RRIRCRPPRLPRPRPRPAQIPRP,0.00931
13,RRIRGRPPRLPRPRPRPPIDPRP,0.888
14,RRIRYRPPRLPRPRPRPEMHPRP,2.42
15,RRIRWRPPRLPRPRPRPLDVPRP,0.00856
16,RRIRIRPPRLPRPRPRPKAGPRP,0.0458
17,RRIRARPPRLPRPRPRPKTAPRP,0.0481
18,RRIRDRPPRLPRPRPRPFVDPRP,0.063
19,RRIRWRPPRLPRPRPRPINQPRP,-0.0913
20,RRIRDRPPRLPRPRPRPGIYPRP,-0.15
21,RRIRIRPPRLPRPRPRPQTMPRP,-0.0804
22,RRIRFRPPRLPRPRPRPFMLPRP,-0.66
23,RRIRGRPPRLPRPRPRPFGWPRP,0.741
24,RRIRRRPPRLPRPRPRPDFYPRP,0.159
25,RRIRIRPPRLPRPRPRPVLVPRP,0.0259

row,Sequence,shrunken log2 fold change
1,RRIRTRPPRLPRPRPRPARFPRP,0.128
2,RRIRERPPRLPRPRPRPAPAPRP,0.305
3,RRIRPRPPRLPRPRPRPTDYPRP,-0.132
4,RRIRSRPPRLPRPRPRPHCHPRP,-0.783
5,RRIRFRPPRLPRPRPRPDDDPRP,0.114
6,RRIRVRPPRLPRPRPRPDKQPRP,-0.284
7,RRIRKRPPRLPRPRPRPWRSPRP,-0.0167
8,RRIRFRPPRLPRPRPRPHFIPRP,-0.473
9,RRIRERPPRLPRPRPRPLHFPRP,-0.141
10,RRIRFRPPRLPRPRPRPIICPRP,0.12
11,RRIRYRPPRLPRPRPRPMCGPRP,-0.17
12,RRIRNRPPRLPRPRPRPMKEPRP,0.0626
13,RRIRCRPPRLPRPRPRPASAPRP,0.248
14,RRIRIRPPRLPRPRPRPNAAPRP,-0.014
15,RRIRCRPPRLPRPRPRPVMKPRP,-0.342
16,RRIRHRPPRLPRPRPRPMKRPRP,0.0794
17,RRIRFRPPRLPRPRPRPSCRPRP,-0.145
18,RRIRRRPPRLPRPRPRPDEVPRP,0.61
19,RRIRARPPRLPRPRPRPCEYPRP,-0.133
20,RRIRGRPPRLPRPRPRPYINPRP,-0.151
21,RRIRSRPPRLPRPRPRPVSSPRP,0.0316
22,RRIRSRPPRLPRPRPRPPTWPRP,0.326
23,RRIRVRPPRLPRPRPRPALAPRP,0.484
24,RRIRPRPPRLPRPRPRPCKTPRP,0.106
25,RRIRVRPPRLPRPRPRPPRQPRP,0.583

row,Sequence,shrunken log2 fold change
1,RRIRPRPPRLPRPRPRPDEAPRP,-0.152
2,RRIRWRPPRLPRPRPRPMNYPRP,-0.364
3,RRIRQRPPRLPRPRPRPEEHPRP,-0.0135
4,RRIRIRPPRLPRPRPRPHDKPRP,-0.74
5,RRIRTRPPRLPRPRPRPSYTPRP,-0.761
6,RRIRKRPPRLPRPRPRPLKSPRP,0.713
7,RRIRIRPPRLPRPRPRPQDCPRP,0.00138
8,RRIRPRPPRLPRPRPRPQIQPRP,-0.286
9,RRIRARPPRLPRPRPRPTLHPRP,0.584
10,RRIRARPPRLPRPRPRPFGIPRP,0.0411
11,RRIRKRPPRLPRPRPRPFMIPRP,-0.326
12,RRIRTRPPRLPRPRPRPVLLPRP,-0.127
13,RRIRFRPPRLPRPRPRPLWQPRP,-0.308
14,RRIRSRPPRLPRPRPRPLCVPRP,-0.143
15,RRIRLRPPRLPRPRPRPSKQPRP,-0.572
16,RRIRARPPRLPRPRPRPAEEPRP,0.697
17,RRIRLRPPRLPRPRPRPTSEPRP,-0.0829
18,RRIRKRPPRLPRPRPRPQMEPRP,-0.0377
19,RRIRFRPPRLPRPRPRPLCEPRP,-0.166
20,RRIRPRPPRLPRPRPRPYGGPRP,-0.153
21,RRIRVRPPRLPRPRPRPHRSPRP,-0.164
22,RRIRRRPPRLPRPRPRPEAWPRP,0.14
23,RRIRGRPPRLPRPRPRPNCHPRP,0.415
24,RRIRGRPPRLPRPRPRPLKRPRP,0.216
25,RRIRWRPPRLPRPRPRPNAQPRP,-0.0306

# From the supplement of paper PMC9112550, “Optimization of the antimicrobial peptide Bac7 by deep mutational scanning” (BMC Biology, 2022)
